Test results reported in article PMC6973313 (mAbs, 2020).

Molecular target: T1, Mouse GIPR extracellular domain (residues 19 to 134) (mouse, UniProt Q0P543 19-134)
T1 sequence: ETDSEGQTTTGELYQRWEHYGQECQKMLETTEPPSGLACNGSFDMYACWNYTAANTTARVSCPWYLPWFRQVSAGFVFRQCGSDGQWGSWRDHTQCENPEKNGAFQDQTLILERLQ
Experiment: crystal structure

binding result: binds
B1: Fab of mAb1 (Fab1) (Fab, V domains shown)
VH: DVQLVESGGGLVQPGGSRKLSCAASGFTFSSFGMHWVRQAPEKGLEWVAYISSGSSTIYYADTVKGRFTISRDNPKNTLFLQMTSLRSEDTAMYYCARGKYPTWIAYWGQGTLVTVSA
VL: DIVMTQSPSSLTVTAGEKVTMSCKSSQSLLNSGNQKNYLTWYQQKPGQPPKLLISWASTRDSGVPDRFTGSGSGTDFTLTISSVQAEDLAVYYCQNDYSYPLTFGAGTKLELKR
